A short description of this data set: soluble fraction after stress (log2 fold change); higher = more stays soluble; pooled small domains, quantitative proteomics. As to conditions: stress: 75 degC.
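Note: 20 min heating vs room temperature control held 20 min.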

In the case of “HMGGPRDVPYSTFLIEVEKGQVAEVTIQDHKITGTYKNSNEPFITNAPDDPDLVSRLIKYGVGVQAKPPE”, the “soluble fraction (log2)” value turned out to be 0.0896.

With “HMGGREEAGTDIARLLGYINDIHGEELIAKLEYYQKMLGSENFAVLMSRLPDGQKKELREQNLYSEYV”, the “soluble fraction (log2)” value was -0.152.

As to “HMGGRRHANMSREEEAAFLAPFFEKAAQGGILVVREIRQALDAHLGRTVPLSTVYNLLHRHNWRKL”, the “soluble fraction (log2)” value was -3.39.

Take “HMGGRTITVGISENMTVKDIAQMLEEKGLIEDARLFVVQELLSAYHKEIKPGIYDLSTDMTAAQMLEIMS”: the “soluble fraction (log2)” value was -0.443.

Turning to “HMGGSIDITTAPPGAKIYLDADYYGKTPKRLENISAGTYRLHLLHPEKGEVYRSVTLNEKNGTLKIDENLN”, the “soluble fraction (log2)” value came out at 0.0541.

Turning to “HMGGTATDYYNQGRTAYDVGDYNGALMNFQEAVRLDPRYGEAYYGLGKAYEALNMQNQALDAYLSAI”, the “soluble fraction (log2)” value is -0.529.

With “HMGGVSTDKPLNWDADGTSKLTQEQIDYLRSTYDLSDMSKQDYYDLMADLTNMNAISIKDVISQYVK”, the “soluble fraction (log2)” value is -0.0294.

With “HMGGYVVVGDKDGFWSVVSTPVSKAKAEELLKDTTFPKGEKGKIVSVAEAMSHKKVIGKEYLESGGT”, the “soluble fraction (log2)” value was 0.0752.

With “HMGHASPGNREALQFALERHQARAAEFAEKAGLSIANASTKFKQLWEQGFLMRNESVADSGGVEFLYQR”, the “soluble fraction (log2)” value was -0.113.

Consider “HMGHEISLNNSRFLKLLNKTKISISNDDTRHYLNGIFLHLTEAHGRQFLTGVATDSHRLSSSSLEID”, for which the “soluble fraction (log2)” value was -0.206.

On to “HMGHRQRRARARNRSMLEDIPGLGPKRRQQLLRQFGGLPQLMRAGVAELSQVPGISDSLARKIHAELHPES”, for which the “soluble fraction (log2)” value is -2.73.

On to “HMGHYGQMTRDLIEKAKTYEEGEEKAALVLTIANLMKRHYLTWNRATVENTLIAEQLKEMSEGALTLPEDV”, for which the “soluble fraction (log2)” value was -0.956.

For “HMGIAEGSSVFVRVLAAEDGGRYTVSFAGRRFSVLSRQALGIGSAFRADVKVEKGQVLLVPR”, the “soluble fraction (log2)” value was -2.95.

For “HMGIAERKEKQKLEIRNAILEASRKLIVEEGFEKVTMRKIADLIEYSPTTVYLYFKDKNEILFHLHQ”, the “soluble fraction (log2)” value was -1.54.

For the sequence “HMGIDVSAFSDTALEVLRLQAAGYTTREIAQQLHITQRTVKYHASENYRKLDARNLVDAVQIAQSLHI”, the “soluble fraction (log2)” value was -1.5.

“HMGIEIKLLMSFMTDSGRKVSLFVTDPREDVTETEIKQVMDLIIEKNIFAPNGEDIVSAKEAKIVQT”: the “soluble fraction (log2)” value is -1.35.

As to “HMGIERTNADTSFSVNVYGKELIITSNKPLVVNIYAIDGTLVRTEQVTIGVNTVSGLPSGIYVVGQQKVVI”, the “soluble fraction (log2)” value was -1.1.

As to “HMGIIVDMSKIKQMLQLSEAGHSNRKIALELGINKETVNNYMQLIRNGRLDIRQLLKMDDPELERRFHA”, the “soluble fraction (log2)” value was -0.965.

As for “HMGIKLSDRQMQIVEIVKSQQPITSEQVAERLNLTRAALRSDLSILTMAGILEARPKVGYSLTGR”, the “soluble fraction (log2)” value is -1.97.

As for “HMGILPDDVKLNIKEAKKIGFPIMLKAIHGGGGRGMMIVQSEDEFADAMKITKTEAKNSFGNGDLYFEKFF”, the “soluble fraction (log2)” value turned out to be 0.408.

As to “HMGITRQQALQQINQSASPKKILNASLGKRGSEFVWDIGYLSKSGKLNYVTYSFRSGEQLNAIKN”, the “soluble fraction (log2)” value is -1.03.

“HMGIVAGGTQSIATLRAIDTTDAQLYPDKILINVEDAGLYRLDRQSTATDDGNQVIKPTVGVGRWLKMTS”: the “soluble fraction (log2)” value was -0.15.

In the case of “HMGIVVDGTMTLEGVAERYGMSVGELARVIGVPPEYSNERLGRLRKSYEFEMDDIRIYIIQKQ”, the “soluble fraction (log2)” value was -1.54.

Turning to “HMGKAYMVPDVKNKSVNQAQLLLADKHMNGVVVDSSYVKELPAGIVLDQTPVGGMKVKEGRTVYLTINSD”, the “soluble fraction (log2)” value stood at 0.156.

On to “HMGKDIYLTSGWVEKFDELNEFSNSVDNYDRLNQFGMYENAIIGDTGVIKITDEMIFDLYEKIQVPVEAGP”, for which the “soluble fraction (log2)” value is -0.0582.

As to “HMGKEDLTAAIKKMTLNDKLDIHKIVANFQTNDSEEVITAVKWLMENNYLLKIKNNYTWNTKEK”, the “soluble fraction (log2)” value is -0.901.

As for “HMGKHYLLKDDNGTITIYKILEDGTQEVYEKTEISTTYLPQTDNIGIKQGIRVNGDEALNELIENF”, the “soluble fraction (log2)” value was -0.0623.

Source of the values: the domain aggregation screens of Martell et al. (2025).
